Data reported in patent US20260201020A1, “METHODS FOR EXPRESSION OF FUSION-FREE BOVINE ULTRALONG CDR3 SCAFFOLD” (priority 2022, published 2026).
Read-outs that look alike come from different tables or passages of the source.

Experiments:
[1] = biological target: SARS-CoV-2 Spike RBD (SARS-CoV-2), P0DTC2
[2] = biological target: SARS-CoV-2 Spike RBD (SARS-CoV-2), P0DTC2; remark: listed apart in the source
[3] = biological target: SARS-CoV-2 Spike RBD (SARS-CoV-2), P0DTC2; remark: listed apart in the source
[4] = biological target: SARS-CoV-2 Spike RBD (SARS-CoV-2), P0DTC2; remark: listed apart in the source
[5] = biological target: SARS-CoV-2 Spike RBD (SARS-CoV-2), P0DTC2; remark: listed apart in the source
[6] = biological target: SARS-CoV-2 Spike RBD (SARS-CoV-2), P0DTC2; remark: listed apart in the source
[7] = biological target: SARS-CoV-2 Spike RBD (SARS-CoV-2), P0DTC2; remark: listed apart in the source
[8] = biological target: SARS-CoV-2 Spike RBD (SARS-CoV-2), P0DTC2; remark: listed apart in the source
[9] = biological target: SARS-CoV-2 Spike RBD (SARS-CoV-2), P0DTC2; remark: listed apart in the source
[10] = biological target: SARS-CoV-2 Spike RBD (SARS-CoV-2), P0DTC2; remark: listed apart in the source
[11] = biological target: SARS-CoV-2 Spike RBD (SARS-CoV-2), P0DTC2; remark: listed apart in the source
[12] = biological target: SARS-CoV-2 Spike RBD (SARS-CoV-2), P0DTC2; remark: listed apart in the source
[13] = biological target: SARS-CoV-2 Spike RBD (SARS-CoV-2), P0DTC2; remark: listed apart in the source
[14] = biological target: SARS-CoV-2 Spike RBD (SARS-CoV-2), P0DTC2; remark: listed apart in the source
[15] = biological target: SARS-CoV-2 Spike RBD (SARS-CoV-2), P0DTC2; remark: listed apart in the source
[16] = biological target: SARS-CoV-2 Spike RBD (SARS-CoV-2), P0DTC2; remark: listed apart in the source
[17] = biological target: SARS-CoV-2 Spike RBD (SARS-CoV-2), P0DTC2; remark: listed apart in the source
[18] = biological target: SARS-CoV-2 Spike RBD (SARS-CoV-2), P0DTC2; remark: listed apart in the source
[19] = biological target: SARS-CoV-2 Spike RBD (SARS-CoV-2), P0DTC2; remark: listed apart in the source
[20] = biological target: SARS-CoV-2 Spike RBD (SARS-CoV-2), P0DTC2; remark: listed apart in the source
[21] = biological target: SARS-CoV-2 Spike RBD (SARS-CoV-2), P0DTC2; remark: listed apart in the source
[22] = biological target: SARS-CoV-2 Spike RBD (SARS-CoV-2), P0DTC2; remark: listed apart in the source
[23] = biological target: SARS-CoV-2 Spike RBD (SARS-CoV-2), P0DTC2; remark: listed apart in the source
[24] = biological target: SARS-CoV-2 Spike RBD (SARS-CoV-2), P0DTC2; remark: listed apart in the source
[25] = biological target: SARS-CoV-2 Spike RBD (SARS-CoV-2), P0DTC2; remark: listed apart in the source
[26] = biological target: SARS-CoV-2 Spike RBD (SARS-CoV-2), P0DTC2; remark: listed apart in the source
[27] = biological target: SARS-CoV-2 Spike RBD (SARS-CoV-2), P0DTC2; remark: listed apart in the source

Adjusted Binding Rate [1]: 3.79 nm/s | Adjusted Binding Rate [2]: 34.6 nm/s | Adjusted Binding Rate [3]: 5.39 nm/s | Adjusted Binding Rate [4]: 5.5 nm/s | Adjusted Binding Rate [5]: 34 nm/s | Adjusted Binding Rate [6]: 4.3 nm/s | Adjusted Binding Rate [7]: 2.44 nm/s | Adjusted Binding Rate [8]: 7.34 nm/s | Adjusted Binding Rate [9]: 14.3 nm/s | Adjusted Binding Rate [10]: 22 nm/s | Adjusted Binding Rate [11]: 4.4 nm/s | Adjusted Binding Rate [12]: 3.4 nm/s | Adjusted Binding Rate [13]: 8.31 nm/s | Adjusted Binding Rate [14]: 3.39 nm/s | Adjusted Binding Rate [15]: 3.35 nm/s | Adjusted Binding Rate [16]: 7.3 nm/s | Adjusted Binding Rate [17]: 9.51 nm/s | Adjusted Binding Rate [18]: 6.36 nm/s | Adjusted Binding Rate [19]: 3.73 nm/s | Adjusted Binding Rate [20]: 12.5 nm/s | Adjusted Binding Rate [21]: 6.42 nm/s | Adjusted Binding Rate [22]: 2.1 nm/s | Adjusted Binding Rate [23]: 4.91 nm/s | Adjusted Binding Rate [24]: 2.88 nm/s | Adjusted Binding Rate [25]: 1.5 nm/s | Adjusted Binding Rate [26]: 6.47 nm/s | Adjusted Binding Rate [27]: 19.4 nm/s
B1: R2G3-His (peptide)
chain: GGGGAMGSEGDKTCPDGYEHTCGCIGGCGCKRSACIGALCCQASLGGWLSDGETYTGGGGSGGGGSHHHHHH
modifications: not checked
